We go through 1 protein from US20160281104A1 (KOREA ATOMIC ENERGY RESEARCH INSTITUTE, published 2016).

This data set deals with the molecule itself. Nature of the data set: size exclusion chromatography (Superdex 200) and native PAGE; self-association. (In gel filtration, larger molecules generally elute earlier.)

B1: alkyl hydroperoxide reductase subunit F (AhpF) protein of Pseudomonas aeruginosa (enzyme)
chain: MLDANLKTQLKAYLEKVSQPFEIVASLDDSDKSRELLGLLQDIVGLTDKITLKTDGSDARKPSFSLNRPGADIGLRFAGIPMGHEFTSLVLALLQVGGHPSKLDADVIEQVKGIEGTFEFETYFSLSCQNCPDVVQALNLMAVLNPNIRHVAIDGALFQDEVEARQIMSVPSIYLNGEVFGQGRMGVEEILAKIDTGAAARDAEKLTARDAFDVLVVGGGPAGAAAAIYAARKGIRTGVAAERFGGQVLDTMAIENFISVQETEGPKLARALEEHVRHYEVDIMNLQRASKLVPAKNAGELHEVRFESGGSLKAKTLILATGARWREMGVPGEQEYKAKGVCFCPHCDGPLFKGKRVAVIGGGNSGVEAAIDLAGIVAHVTLLEFDSKLRADAVLQRKLYSLPNVEVITSALTSEVKGDGQKVTGLVYKDRNSEEFKSIELEGIFVQIGLLPNTEWLKGSVELSPRGEIIVDARGETSLPGIFAAGDVTTVPYKQIVIAVGEGAKASLSAFDHLIRTSAPE
notes: Recombinant protein cloned from P. aeruginosa PAO1 genomic DNA and expressed from pET28a in E. coli BL21(DE3); It was purified on Ni-NTA and released from the resin with thrombin, so the His tag was cleaved; also called PaAhpF; AhpF(PA)
For B1, the binding result is listed as “binds”.
